This note sets out measurements from article PMC6525112, “Vitamin D (1,25(OH)2D3) induces α-1-antitrypsin synthesis by CD4^+ T cells, which is required for 1,25(OH)2D3-driven IL-10” (The Journal of Steroid Biochemistry and Molecular Biology, 2019).

Assay [1] addresses T1, NT-647 labelled recombinant α-1-antitrypsin (human, UniProt P01009 25-418, NT-647 label).
T1 construct: alpha-1-antitrypsin, human, recombinant from E. coli (not glycosylated); In the functional row the recombinant protein was used without the label; also called NT-647 labeled AAT; source: E. coli recombinant system, purified in-house
Kind of assay: MST; Monolith NT.115, LED 70%, MST power 20%; 0.5 μM NT-647 labelled α-1-antitrypsin incubated 30 min with C3a at 6 nM to 205 μM. The note with it: both partners purified.

Assay [2] deals with T2, α-1-antitrypsin (analyte of the SPR assay) (human, UniProt P01009 25-418).
T2 construct: alpha-1-antitrypsin, human; May be the same preparation as m1 or the unlabelled form of m2; also called AAT
Put plainly: SPR; Biacore T200; biotinylated C3a immobilised by amine coupling on CM5 chip (800-1500 RU); serially diluted α-1-antitrypsin injected at 10 μl/minute in Dulbecco's PBS; regeneration 2.0 M KCl; blank surface subtracted. As to conditions: both partners purified. (Surface plasmon resonance follows binding to a sensor surface in real time, without labels.)

A word on the Kd: it is the equilibrium constant for the complex coming apart.

T1 sequence (P01009 25-418): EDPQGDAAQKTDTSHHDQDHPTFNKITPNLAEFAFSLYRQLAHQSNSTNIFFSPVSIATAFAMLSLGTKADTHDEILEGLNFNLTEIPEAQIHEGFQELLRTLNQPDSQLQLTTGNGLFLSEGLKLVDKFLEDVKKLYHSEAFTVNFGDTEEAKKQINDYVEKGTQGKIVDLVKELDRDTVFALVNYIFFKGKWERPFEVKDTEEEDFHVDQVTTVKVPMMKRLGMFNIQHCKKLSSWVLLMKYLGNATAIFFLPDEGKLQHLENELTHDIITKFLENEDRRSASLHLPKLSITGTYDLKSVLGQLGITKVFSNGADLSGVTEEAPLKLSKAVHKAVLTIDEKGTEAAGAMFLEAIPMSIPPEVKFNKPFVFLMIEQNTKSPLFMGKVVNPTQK
T2 sequence (P01009 25-418): as above

B1: C3a (natural protein)
chain: not shown
notes: C3a anaphylatoxin, the cut product of complement C3; also called complement C3a; complement anaphylatoxin C3a; source: bought: Complement Technology, Inc
On to B1, for which the Kd in assay [1] came to 8.4 µM.

B2: Biotinylated-C3a (natural protein)
chain: not shown
modifications: biotin (biotinamidohexanoic acid 3-sulfo-N-hydroxysuccinimide ester, random, no more than one biotin per molecule of C3a)
notes: C3a anaphylatoxin, the cut product of complement C3; also called randomly biotinylated C3a; complement C3a; source: bought: Complement Technology Inc; biotinylated in-house
With B2, the Kd in assay [2] was 7.53 µM.
